In assay [1] the test system is Tiki1 and Dkk1 expression. As to the kind of experiment: RT-PCR of Tiki1 and Dkk1 expression in treated whole embryos (FIG. 2M). It is filed as in vivo, Xenopus. As for the experimental part:
(M) Tiki1 expression is regulated by maternal Wnt signaling. Whole embryos were used for LiCl or UV treatment. 20 or 40 pg of Xwnt8 mRNA was injected into the ventral marginal zone (VMZ) at 4 to 8-cell stage and the VMZ was dissected at stage 10.5 for RT-PCR. ΔNTCF mRNA (1 or 2 ng) was injected into the dorsal marginal zone (DMZ) at 4 to 8-cell stage and the DMZ was dissected at stage 10.5 for RT-PCR. Con: control.
Organizer formation requires maternal Wnt/β-catenin signaling (De Robertis and Kuroda, 2004; Harland and Gerhart, 1997), which is necessary and sufficient for Tiki1 (and Dkk1) expression. Ectopic Xwnt8 induced Tiki1 and Dkk1 expression ventrally, whereas a dominant negative TCF (T cell factor, a DNA-binding transcription factor that mediates beta-catenin signaling), ΔNTCF (Molenaar et al., 1996), suppressed the endogenous Tiki1 and Dkk1 dorsal expression (FIG. 2M). Furthermore LiCl, which stabilizes β-catenin thus dorsalizes embryos, induced Tiki1 and Dkk1 expression, while ultraviolet irradiation, which through microtubule disruption causes defective maternal Wnt signaling thus ventralizes embryos (Harland and Gerhart, 1997), suppressed Tiki1 and Dkk1 expression (FIG. 2M).

The test system of another assay is Wnt3a. As to the kind of experiment: TOPFLASH assay of TIKI2N mutants co-transfected with Wnt3a in HEK293T cells. The format is cell-based, human. The settings on record: 5, 2.5, 1.25 and 0.612 ng plasmid with Wnt3a 20 ng. As for the experimental part:
FIG. 8B. Bar graph showing the results of a TOPFLASH assay testing TIKI2 mutations in Human TIKI2N construct (no transmembrane domain). Decreasing doses of 5, 2.5, 1.25 and 0.612 ng of the indicated TIKI2N expression plasmid were cotransfected with Wnt3a (20 ng) in HEK293T cells.
HEK293T, HeLa, L and L-Wnt3a cells (from ATCC) were maintained in Dulbecco's modified Eagle's medium (DMEM; Invitrogen) supplemented with 10% fetal bovine serum (FBS) and 1% penicillin-streptomycin-glutamine (Invitrogen). Lipofectamine 2000 (Invitrogen) or Fugene6 (Roche) was used for all cell transfections. L and L-Wnt3a cells that stably express TIKI2 were generated by infecting cells with retroviruses and selected by puromycin. L cells stably expressing Wnt3a(FLAG) were established by transfecting L cells with a Wnt3a(FLAG) expressing vector and selected with neomycine. L cells stably expressing both Wnt3a(FLAG) and TIKI2 were also generated. TOPFLASH reporter assay was performed as previously described (MacDonald et al., 2008).
A Wnt-responsive reporter (TOP-FLASH) assay was performed to test mutations at T56A, H58A, E85A, E205A, H256A, R303A, H331A in a Human TIKI2N construct (no transmembrane domain). Decreasing doses of 5, 2.5, 1.25 and 0.612 ng of the indicated TIKI2N expression plasmid were co-transfected with Wnt3a (20 ng) in HEK293T cells. […] T56A, H256A, and R303A had no effect on TIM activity, and so are likely to be less important sites for function.

Where a chain is given by its changes, count along the chain named. Names may count otherwise.

As to `[Cl-].[Li+]` [LiCl], the “Tiki1 and Dkk1 expression” value in assay [1] is given as “induced”.

B1: T56A: alanine mutation in Human TIKI2N construct (no transmembrane domain) (protein, UniProt A6NFA1 20-494, looked up, variant T56A)
extracellular domain: RPQPPDGGQCRPPGSQRDLNSFLWTIRRDPPAYLFGAIHVPYTRVWDFIPDNSKAAFQASTRVYFELDLTDPYTISALASCQLLPHGENLQDVLPHELYWRLKRHLDYVKLMMPSWMTPAQRGKGLYADYLFNAIAGNWERKRPVWVMLMVNSLTERDVRFRGVPVLDLYLAQQAEKMKKTTGAVEQVEEQCHPLNNGLNFSQVLFALNQTLLQQESVRAGSLQASYTTEDLIKHYNCGDLSAVIFNHDTSQLPNFINTTLPPHEQVTAQEIDSYFRQELIYKRNERMGKRVMALLRENEDKICFFAFGAGHFLGNNTVIDILRQAGLEVDHTPAGQAIHSPAPQSPAPSPEGTSTSPAPVTPAAAVPEAPSVTPTAPPEDEDPALSPHLLLPDSLSQLEEFGRQRKWHKRQSTHQRPRQFNDLWVRIEDSTTASPPPLPLQPTHSSGTAKPPFQLSDQLQQQDPPGPASSSAPT
modifications: extracellular domain
Consider B1, for which the “TIKI activity of TIKI2N mutants (inhibition of Wnt3a-induced TOPFLASH)” value in the assay on Wnt3a is “no effect”.

B2: R303A: alanine mutation in Human TIKI2N construct (no transmembrane domain) (protein, UniProt A6NFA1 20-494, looked up, variant R303A)
extracellular domain: B1 extracellular domain with A37T, R284A
modifications: extracellular domain
In the case of B2, in the assay on Wnt3a, the “TIKI activity of TIKI2N mutants (inhibition of Wnt3a-induced TOPFLASH)” value is on record as “no effect”.
